Measurements taken from article PMC5034325.
Blank lines part the entries; values can stand above or below the substance they belong to.

Target: human taste receptor T1R2-T1R3 (human) (UniProt Q8TE23)
Sequence of UniProt Q8TE23 (Q8TE23 20-839, chain 1 of 2): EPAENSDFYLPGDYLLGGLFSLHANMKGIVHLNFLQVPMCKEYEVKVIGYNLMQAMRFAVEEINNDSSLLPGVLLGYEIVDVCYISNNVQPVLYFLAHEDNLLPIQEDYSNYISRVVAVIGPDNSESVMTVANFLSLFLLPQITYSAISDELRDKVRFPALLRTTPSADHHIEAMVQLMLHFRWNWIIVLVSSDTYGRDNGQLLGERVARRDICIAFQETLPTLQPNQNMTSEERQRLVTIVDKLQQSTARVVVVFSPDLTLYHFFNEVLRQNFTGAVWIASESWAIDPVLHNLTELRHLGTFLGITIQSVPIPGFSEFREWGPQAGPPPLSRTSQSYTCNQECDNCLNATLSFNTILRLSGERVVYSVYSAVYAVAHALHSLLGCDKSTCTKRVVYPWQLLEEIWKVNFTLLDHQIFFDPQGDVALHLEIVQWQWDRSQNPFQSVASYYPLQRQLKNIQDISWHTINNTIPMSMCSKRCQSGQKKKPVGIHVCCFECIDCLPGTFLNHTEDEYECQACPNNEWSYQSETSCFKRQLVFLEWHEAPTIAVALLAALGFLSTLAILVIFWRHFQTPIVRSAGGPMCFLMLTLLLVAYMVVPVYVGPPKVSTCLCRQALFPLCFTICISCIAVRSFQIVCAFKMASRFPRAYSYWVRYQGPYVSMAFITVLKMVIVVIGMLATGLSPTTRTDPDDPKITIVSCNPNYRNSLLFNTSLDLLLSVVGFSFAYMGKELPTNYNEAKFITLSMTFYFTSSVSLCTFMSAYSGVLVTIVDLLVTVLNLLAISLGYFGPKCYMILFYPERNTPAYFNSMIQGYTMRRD
Sequence of UniProt Q8TE23 (Q7RTX0 21-852, chain 2 of 2, further chain): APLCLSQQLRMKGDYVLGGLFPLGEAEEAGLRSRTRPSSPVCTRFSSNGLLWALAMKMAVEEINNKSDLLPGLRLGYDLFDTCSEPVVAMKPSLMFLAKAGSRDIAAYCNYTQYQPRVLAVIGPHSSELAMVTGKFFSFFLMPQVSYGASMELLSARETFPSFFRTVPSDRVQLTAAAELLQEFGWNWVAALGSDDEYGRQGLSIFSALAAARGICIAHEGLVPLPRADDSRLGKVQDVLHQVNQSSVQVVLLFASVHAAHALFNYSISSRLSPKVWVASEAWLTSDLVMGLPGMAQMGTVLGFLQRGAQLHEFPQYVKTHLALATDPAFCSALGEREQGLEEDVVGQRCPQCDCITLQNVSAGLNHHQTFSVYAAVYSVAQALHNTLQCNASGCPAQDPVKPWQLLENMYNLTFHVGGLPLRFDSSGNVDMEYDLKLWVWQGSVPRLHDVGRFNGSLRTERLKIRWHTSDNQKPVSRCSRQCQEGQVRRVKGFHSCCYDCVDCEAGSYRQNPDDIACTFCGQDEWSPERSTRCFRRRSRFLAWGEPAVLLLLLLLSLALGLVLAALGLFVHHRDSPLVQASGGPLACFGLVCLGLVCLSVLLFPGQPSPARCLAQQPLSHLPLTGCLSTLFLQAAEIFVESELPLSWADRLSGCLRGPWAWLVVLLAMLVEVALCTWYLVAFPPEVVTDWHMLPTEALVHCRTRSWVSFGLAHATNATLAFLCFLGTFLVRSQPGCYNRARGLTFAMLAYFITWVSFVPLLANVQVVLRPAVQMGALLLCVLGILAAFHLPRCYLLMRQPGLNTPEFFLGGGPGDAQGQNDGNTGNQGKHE

sweetness threshold, triangle test by a panel of tasters, 5 to 500 nM (also printed as 2.50 mg/L): 223 nM
Substance: C41S, Y65R, S67K, D68N-MNEI (Mut1) (ligand)

sweetness threshold, triangle test by a panel of tasters, 5 to 500 nM (also printed as 0.28 mg/L): 25 nM
Substance: E23Q, Q28K, C41S, Y65R-MNEI (Mut3) (ligand)

sweetness threshold, triangle test by a panel of tasters, 5 to 500 nM (also printed as 0.40 mg/L): 36 nM
Substance: Q28K, C41S, Y65R-MNEI (Mut2) (ligand)

sweetness threshold, triangle test by a panel of tasters, 5 to 500 nM (also printed as 0.62 mg/L): 55 nM
Substance: Y65R-MNEI (ligand)
